The subject of data set [1] is T1, Src peptide substrate KVEKIGEGTYGVVYK
T1 sequence: KVEKIGEGTYGVVYK

For data set [2], the target named is phospho-CrkL recombinant protein. Put plainly: sandwich immunoassay, 96-well plate, 12 hours: Y244 capture, phospho-CrkL analyte, 4G10 and FITC anti-mouse detection.
For data set [3] the target is unchanged. Put plainly: sandwich immunoassay, microfluidic chip, 1 hour: Y244 capture, phospho-CrkL analyte, 4G10-coated beads counted.

With Src kinase, the “detection limit (kinase activity, beads bound/counted)” value in data set [1] is reported as “resulting in a detection limit of 100 fM”.

In the case of “rabbit anti-CrkL monoclonal antibodies (clone Y244, Novus Biologicals #NB110-56895) (antibody)”, the Current limit of detection in data set [2] was 1 nM; in data set [3], 100 pM.
